Usually Kd stands for the equilibrium constant for the complex coming apart. A higher Kd goes with a looser complex. As usually defined, the koff is a measure of how fast the partners let go of each other. A higher koff goes with fast dissociation. As usually defined, the kon is the rate constant with which the complex forms. A higher kon goes with faster complex formation.

Experiment [1] deals with Ixonnexin (Ixodes scapularis) (UniProt Q4PMS3). The experiment can be described thus: SPR; Ixonnexin amine-coupled to a carboxymethylated dextran (CM5) chip, 726.2 RU; analytes injected 120 s at 30 µL/min, 25 °C, dissociation 600 s; global fit with the two-state (conformational change) model, Langmuir 1:1 for plasmin.

Take Single-chain t-PA (enzyme): in experiment [1], the Kd is 0.00467 µM; the ka1 (two-state, first step) worked out at 413000 M⁻¹ s⁻¹; the ka2 (two-state, conformational change) is 0.0097 s⁻¹; the kd1 (two-state, first step) turned out to be 0.031 s⁻¹. Further, in experiment [1], the kd2 (two-state, conformational change) came to 0.0015 s⁻¹.

In the case of Glu-plasminogen (natural protein), the Km of plasmin generation (S2251) started with t-PA, with immobilized Ixonnexin (0.5 μg/ml) and increasing Glu-plasminogen in the experiment with Single-chain t-PA worked out at 0.208 µM. In experiment [1], the Kd was 0.0195 µM; the ka1 (two-state, first step) stood at 123000 M⁻¹ s⁻¹; the ka2 (two-state, conformational change) came to 0.022 s⁻¹; the kd1 (two-state, first step) is 0.057 s⁻¹. In addition, the kd2 (two-state, conformational change) in experiment [1] was 0.00099 s⁻¹.

In experiment [1], Two-chain t-PA (enzyme) registered a Kd of 0.0103 µM; a ka1 (two-state, first step) of 1.2e+06 M⁻¹ s⁻¹; a ka2 (two-state, conformational change) of 0.011 s⁻¹; a kd1 (two-state, first step) of 0.43 s⁻¹. Also, the kd2 (two-state, conformational change) in experiment [1] was found to be 0.0018 s⁻¹.

In experiment [1], Plasmin (enzyme) returned a Kd of 0.197 µM, a koff of 0.29 s⁻¹ and a kon of 1.48e+06 M⁻¹ s⁻¹.

For the origin of these results see PMC5859130.
